Sequences and labels used below:
B1: GpH7-A5/GpH7-B3 variant K334_08L/GpL16-k0 (antibody, human IgG1, kappa)
heavy 1: not shown
heavy 2: not shown
light: DIVMTQSPLSLPVTPGEPASISCQASESLVHSNRNTYLHWYLQKPGQSPQLLIYKVSNRFSGVPDRFSGSGSGTDFTLKISRVEAEDVGVYYCSQNTHVPPTFGQGTKVEIERTVAAPSVFIFPPSDEQLKSGTASVVCLLNNFYPREAKVQWKVDNALQSGNSQESVTEQDSKDSTYSLSSTLTLSKADYEKHKVYACEVTHQGLSSPVTKSFNRGEC
notes: Alteration in one H chain only; also called He Ab K334_08L
B2: GpH7-A5/GpH7-B3 variant K326_10E/GpL16-k0 (antibody, human IgG1, kappa)
heavy 1: not shown
heavy 2: not shown
light: B1 light
notes: Alteration in one H chain only; also called He Ab K326_10E
B3: GpH7-A5/GpH7-B3 variant S337_14T/GpL16-k0 (antibody, human IgG1, kappa)
heavy 1: not shown
heavy 2: not shown
light: B1 light
notes: Alteration in one H chain only; also called He Ab S337_14T
B4: GpH7-A5/GpH7-B3 variant K334_05P/GpL16-k0 (antibody, human IgG1, kappa)
heavy 1: not shown
heavy 2: not shown
light: B1 light
notes: Alteration in one H chain only; also called He Ab K334_05P
B5: GpH7-A5/GpH7-B3 variant P271_01G/GpL16-k0 (antibody, human IgG1, kappa)
heavy 1: not shown
heavy 2: not shown
light: B1 light
notes: Alteration in one H chain only; also called He Ab P271_01G
B6: GpH7-A5/GpH7-B3 variant K334_14T/GpL16-k0 (antibody, human IgG1, kappa)
heavy 1: not shown
heavy 2: not shown
light: B1 light
notes: Alteration in one H chain only; also called He Ab K334_14T
B7: GpH7-A5/GpH7-B3 variant S298_09D/GpL16-k0 (antibody, human IgG1, kappa)
heavy 1: not shown
heavy 2: not shown
light: B1 light
notes: Alteration in one H chain only; also called He Ab S298_09D
B8: GpH7-A5/GpH7-B3 variant K334_03V/GpL16-k0 (antibody, human IgG1, kappa)
heavy 1: not shown
heavy 2: not shown
light: B1 light
notes: Alteration in one H chain only; also called He Ab K334_03V
B9: GpH7-A5/GpH7-B3 variant K334_18N/GpL16-k0 (antibody, human IgG1, kappa)
heavy 1: not shown
heavy 2: not shown
light: B1 light
notes: Alteration in one H chain only; also called He Ab K334_18N
B10: GpH7-A5/GpH7-B3 variant K334_04F/GpL16-k0 (antibody, human IgG1, kappa)
heavy 1: not shown
heavy 2: not shown
light: B1 light
notes: Alteration in one H chain only; also called He Ab K334_04F
B11: GpH7-A5/GpH7-B3 variant T335_02A/GpL16-k0 (antibody, human IgG1, kappa)
heavy 1: not shown
heavy 2: not shown
light: B1 light
notes: Alteration in one H chain only; also called He Ab T335_02A
B12: GpH7-A5/GpH7-B3 variant T335_01G/GpL16-k0 (antibody, human IgG1, kappa)
heavy 1: not shown
heavy 2: not shown
light: B1 light
notes: Alteration in one H chain only; also called He Ab T335_01G
B13: GpH7-A5/GpH7-B3 variant K326_07I/GpL16-k0 (antibody, human IgG1, kappa)
heavy 1: not shown
heavy 2: not shown
light: B1 light
notes: Alteration in one H chain only; also called He Ab K326_07I
B14: GpH7-A5/GpH7-B3 variant Q295_12R/GpL16-k0 (antibody, human IgG1, kappa)
heavy 1: not shown
heavy 2: not shown
light: B1 light
notes: Alteration in one H chain only; also called He Ab Q295_12R
B15: GpH7-A5/GpH7-B3 variant K326_04F/GpL16-k0 (antibody, human IgG1, kappa)
heavy 1: not shown
heavy 2: not shown
light: B1 light
notes: Alteration in one H chain only; also called He Ab K326_04F
B16: GpH7-A5/GpH7-B3 variant K326_06M/GpL16-k0 (antibody, human IgG1, kappa)
heavy 1: not shown
heavy 2: not shown
light: B1 light
notes: Alteration in one H chain only; also called He Ab K326_06M
B17: GpH7-A5/GpH7-B3 variant K334_19Q/GpL16-k0 (antibody, human IgG1, kappa)
heavy 1: not shown
heavy 2: not shown
light: B1 light
notes: Alteration in one H chain only; also called He Ab K334_19Q
B18: GpH7-A5/GpH7-B3 variant I336_16H/GpL16-k0 (antibody, human IgG1, kappa)
heavy 1: not shown
heavy 2: not shown
light: B1 light
notes: Alteration in one H chain only; also called He Ab I336_16H
B19: GpH7-A5/GpH7-B3 variant S337_11K/GpL16-k0 (antibody, human IgG1, kappa)
heavy 1: not shown
heavy 2: not shown
light: B1 light
notes: Alteration in one H chain only; also called He Ab S337_11K
B20: GpH7-A5/GpH7-B3 variant K326_09D/GpL16-k0 (antibody, human IgG1, kappa)
heavy 1: not shown
heavy 2: not shown
light: B1 light
notes: Alteration in one H chain only; also called He Ab K326_09D
B21: GpH7-A5/GpH7-B3 variant P271_19Q/GpL16-k0 (antibody, human IgG1, kappa)
heavy 1: not shown
heavy 2: not shown
light: B1 light
notes: Alteration in one H chain only; also called He Ab P271_19Q
B22: GpH7-B3 variant T335_13S/GpL16-k0 (antibody, human IgG1, kappa)
heavy: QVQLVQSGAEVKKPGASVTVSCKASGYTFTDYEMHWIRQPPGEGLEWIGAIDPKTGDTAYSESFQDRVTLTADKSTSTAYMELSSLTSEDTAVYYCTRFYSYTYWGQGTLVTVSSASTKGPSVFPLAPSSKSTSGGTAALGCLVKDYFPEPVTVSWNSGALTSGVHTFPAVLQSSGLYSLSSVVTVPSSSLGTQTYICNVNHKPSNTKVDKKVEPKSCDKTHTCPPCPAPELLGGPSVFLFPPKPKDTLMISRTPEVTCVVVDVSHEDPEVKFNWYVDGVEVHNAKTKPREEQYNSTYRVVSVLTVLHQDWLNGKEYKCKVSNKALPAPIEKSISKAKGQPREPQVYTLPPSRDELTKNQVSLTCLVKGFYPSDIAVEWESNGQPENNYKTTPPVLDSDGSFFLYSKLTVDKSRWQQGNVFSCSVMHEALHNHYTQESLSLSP
light: B1 light
notes: Alteration in both H chains; also called Ho Ab T335_13S
B23: GpH7-B3 variant Y300_16H/GpL16-k0 (antibody, human IgG1, kappa)
heavy: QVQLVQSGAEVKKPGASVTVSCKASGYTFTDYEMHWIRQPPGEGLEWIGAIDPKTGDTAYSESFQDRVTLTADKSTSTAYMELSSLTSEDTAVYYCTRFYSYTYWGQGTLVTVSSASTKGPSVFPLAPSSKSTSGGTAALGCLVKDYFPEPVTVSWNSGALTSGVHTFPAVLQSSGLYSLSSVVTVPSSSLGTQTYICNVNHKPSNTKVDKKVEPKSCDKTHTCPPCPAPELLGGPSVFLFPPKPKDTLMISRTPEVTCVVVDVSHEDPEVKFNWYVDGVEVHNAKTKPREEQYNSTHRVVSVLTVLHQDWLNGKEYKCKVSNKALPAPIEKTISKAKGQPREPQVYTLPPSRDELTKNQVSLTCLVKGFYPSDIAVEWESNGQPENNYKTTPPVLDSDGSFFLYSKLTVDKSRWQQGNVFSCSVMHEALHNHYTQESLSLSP
light: B1 light
notes: Alteration in both H chains; also called Ho Ab Y300_16H
B24: GpH7-B3 variant Y296_08L/GpL16-k0 (antibody, human IgG1, kappa)
heavy: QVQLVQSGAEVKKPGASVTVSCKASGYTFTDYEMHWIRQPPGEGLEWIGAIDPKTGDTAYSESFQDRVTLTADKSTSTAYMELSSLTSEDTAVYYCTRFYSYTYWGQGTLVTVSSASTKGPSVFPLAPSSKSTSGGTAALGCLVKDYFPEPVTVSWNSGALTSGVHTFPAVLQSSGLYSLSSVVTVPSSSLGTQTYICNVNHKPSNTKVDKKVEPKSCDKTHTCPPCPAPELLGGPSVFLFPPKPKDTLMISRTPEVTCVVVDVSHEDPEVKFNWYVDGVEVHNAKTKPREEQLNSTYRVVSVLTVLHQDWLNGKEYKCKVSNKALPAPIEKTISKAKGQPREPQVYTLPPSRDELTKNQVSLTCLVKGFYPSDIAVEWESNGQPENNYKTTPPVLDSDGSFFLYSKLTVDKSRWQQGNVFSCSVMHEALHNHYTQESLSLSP
light: B1 light
notes: Alteration in both H chains; also called Ho Ab Y296_08L
B25: GpH7-B3 variant Y296_07I/GpL16-k0 (antibody, human IgG1, kappa)
heavy: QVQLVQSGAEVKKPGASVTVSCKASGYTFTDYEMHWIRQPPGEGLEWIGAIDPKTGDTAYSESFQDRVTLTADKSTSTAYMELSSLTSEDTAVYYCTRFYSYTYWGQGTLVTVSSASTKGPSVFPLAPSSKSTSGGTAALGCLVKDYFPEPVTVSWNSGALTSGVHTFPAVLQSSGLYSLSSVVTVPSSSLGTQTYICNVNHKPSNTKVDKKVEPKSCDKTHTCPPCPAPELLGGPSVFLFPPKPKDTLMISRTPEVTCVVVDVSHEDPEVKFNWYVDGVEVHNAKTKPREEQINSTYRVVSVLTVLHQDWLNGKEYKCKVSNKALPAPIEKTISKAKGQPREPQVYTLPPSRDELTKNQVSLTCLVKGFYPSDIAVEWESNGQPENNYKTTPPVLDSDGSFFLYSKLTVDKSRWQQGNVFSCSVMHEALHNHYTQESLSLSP
light: B1 light
notes: Alteration in both H chains; also called Ho Ab Y296_07I
B26: GpH7-B3 variant Y296_03V/GpL16-k0 (antibody, human IgG1, kappa)
heavy: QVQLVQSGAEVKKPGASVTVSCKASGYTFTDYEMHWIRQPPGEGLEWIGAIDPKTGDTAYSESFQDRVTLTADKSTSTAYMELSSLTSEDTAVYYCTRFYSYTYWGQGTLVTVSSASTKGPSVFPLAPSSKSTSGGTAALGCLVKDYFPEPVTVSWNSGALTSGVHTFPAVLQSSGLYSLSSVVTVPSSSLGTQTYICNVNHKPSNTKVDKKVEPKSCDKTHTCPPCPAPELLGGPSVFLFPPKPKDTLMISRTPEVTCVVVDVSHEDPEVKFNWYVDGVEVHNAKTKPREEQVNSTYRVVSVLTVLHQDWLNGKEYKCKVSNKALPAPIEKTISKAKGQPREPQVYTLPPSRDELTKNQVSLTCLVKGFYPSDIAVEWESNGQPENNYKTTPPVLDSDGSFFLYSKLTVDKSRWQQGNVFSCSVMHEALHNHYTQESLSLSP
light: B1 light
notes: Alteration in both H chains; also called Ho Ab Y296_03V
B27: GpH7-B3 variant Y300_07I/GpL16-k0 (antibody, human IgG1, kappa)
heavy: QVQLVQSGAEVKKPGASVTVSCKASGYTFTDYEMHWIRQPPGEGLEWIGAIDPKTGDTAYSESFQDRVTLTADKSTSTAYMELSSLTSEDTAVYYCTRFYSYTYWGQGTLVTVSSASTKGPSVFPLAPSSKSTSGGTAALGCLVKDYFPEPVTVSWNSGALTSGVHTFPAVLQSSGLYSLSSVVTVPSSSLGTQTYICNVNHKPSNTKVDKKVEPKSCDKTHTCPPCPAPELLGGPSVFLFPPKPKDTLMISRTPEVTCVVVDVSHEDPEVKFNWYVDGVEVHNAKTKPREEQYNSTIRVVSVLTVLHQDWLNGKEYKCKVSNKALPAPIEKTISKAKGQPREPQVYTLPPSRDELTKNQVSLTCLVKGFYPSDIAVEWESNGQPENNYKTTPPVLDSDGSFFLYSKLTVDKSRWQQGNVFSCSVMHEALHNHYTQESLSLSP
light: B1 light
notes: Alteration in both H chains; also called Ho Ab Y300_07I
B28: GpH7-B3 variant Y296_02A/GpL16-k0 (antibody, human IgG1, kappa)
heavy: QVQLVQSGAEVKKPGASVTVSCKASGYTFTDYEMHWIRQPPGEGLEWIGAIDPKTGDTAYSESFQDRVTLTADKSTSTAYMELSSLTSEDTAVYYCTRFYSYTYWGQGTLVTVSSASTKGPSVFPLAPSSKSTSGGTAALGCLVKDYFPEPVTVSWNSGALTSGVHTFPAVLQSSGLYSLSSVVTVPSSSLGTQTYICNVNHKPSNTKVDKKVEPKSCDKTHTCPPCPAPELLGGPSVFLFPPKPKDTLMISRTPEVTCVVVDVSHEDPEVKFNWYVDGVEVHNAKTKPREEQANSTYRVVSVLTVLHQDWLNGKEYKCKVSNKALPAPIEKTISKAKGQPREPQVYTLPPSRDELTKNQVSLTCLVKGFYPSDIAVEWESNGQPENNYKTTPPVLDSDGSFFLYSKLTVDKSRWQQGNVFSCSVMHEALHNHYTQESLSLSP
light: B1 light
notes: Alteration in both H chains; also called Ho Ab Y296_02A

T1 sequence (P12314 16-292): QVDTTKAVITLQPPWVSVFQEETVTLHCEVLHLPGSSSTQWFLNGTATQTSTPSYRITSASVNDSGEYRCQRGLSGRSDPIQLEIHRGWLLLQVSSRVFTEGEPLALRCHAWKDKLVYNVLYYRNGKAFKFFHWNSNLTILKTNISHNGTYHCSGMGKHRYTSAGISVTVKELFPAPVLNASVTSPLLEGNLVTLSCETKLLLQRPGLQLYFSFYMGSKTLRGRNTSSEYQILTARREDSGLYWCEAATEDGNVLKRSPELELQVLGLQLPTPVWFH

One assay concerns the target T1, FcγRIa (human, UniProt P12314 16-292).
T1 construct: extracellular domain; also called FcgRI; FcgRIa; not shown: His tag attached to the C terminus
Description: SPR (Biacore), relative binding; control HeCon Ab GpH7-A5/GpH7-B3/GpL16-k0. On the technique in general: In SPR one partner is held on a chip, and binding of the other changes the refractive index at the surface.
As for B1, the He/Con_1a is 105 % of control (=100).

As for B2, the He/Con_1a is 104 % of control (=100).

For the molecule B3, the He/Con_1a is 105 % of control (=100).

For the molecule B4, the He/Con_1a was 104 % of control (=100).

For B5, the He/Con_1a was 105 % of control (=100).

As for B6, the He/Con_1a is 105 % of control (=100).

For B7, the He/Con_1a was 106 % of control (=100).

As to B8, the He/Con_1a was 105 % of control (=100).

Take B9: the He/Con_1a was 105 % of control (=100).

Regarding B10, the He/Con_1a was 105 % of control (=100).

For the molecule B11, the He/Con_1a is 103 % of control (=100).

As for B12, the He/Con_1a is 104 % of control (=100).

For B13, the He/Con_1a was 101 % of control (=100).

Regarding B14, the He/Con_1a was 100 % of control (=100).

In the case of B15, the He/Con_1a was 102 % of control (=100).

As for B16, the He/Con_1a was 102 % of control (=100).

Consider B17, for which the He/Con_1a is 106 % of control (=100).

Turning to B18, the He/Con_1a was 101 % of control (=100).

In the case of B19, the He/Con_1a was 104 % of control (=100).

As to B20, the He/Con_1a was 103 % of control (=100).

Regarding B21, the He/Con_1a was 103 % of control (=100).

Another assay has as its target T1, FcγRIa. Description: SPR (Biacore), relative binding; control HoCon Ab GpH7-B3/GpL16-k0.
For B22, the Ho/Con_1a was 105 % of control (=100).

With B23, the Ho/Con_1a is 111 % of control (=100).

As for B24, the Ho/Con_1a was 105 % of control (=100).

Take B25: the Ho/Con_1a was 106 % of control (=100).

As to B26, the Ho/Con_1a is 104 % of control (=100).

As to B27, the Ho/Con_1a was 109 % of control (=100).

With B28, the Ho/Con_1a was 103 % of control (=100).

For the origin of these results see patent US20150344570A1 (published 2015).
